This note sets out measurements from US20230250168A1 (MABWELL SHANGHAI BIOSCIENCE, published 2023).

Assay [1] concerns the target T1, antigen human CLDN18.2, His-tagged (human, UniProt P56856-2 1-261, limits assumed).
T1 construct: Recombinant antigen used in the Fortebio assay (His-tagged, captured on NTA probe); also called His-tagged antigen; not shown: His tag
The experiment in a line: BLI (Fortebio), His-tagged antigen on NTA probe; ratio to 52E22-xiIgG. Here is the method: (§1) The binding kinetic parameters of the chimeric antibodies and the humanized antibodies thereof to the antigen human CLDN18.2 were analyzed by a Fortebio (BLITZ pro1.1.0.28) instrument. Before performing the assay, an NTA bioprobe was soaked in PBS for 10 min, and the probe was then placed in PBS containing 100 nM antigen for 300 s to capture the His-tagged antigen. The probe was further subjected to a binding reaction with 100 nM antibody for a binding time of 400 s, and the probe was then transferred to PBS and subjected to a dissociation reaction for 600 s. When the assay was finished, data from which the response value of a blank control had been deducted were fitted to a 1:1 Langmuir binding model using software, and then the kinetic constants for antigen-antibody binding were calculated.

Assay [2] concerns the target T1, antigen human CLDN18.2, His-tagged. Description: SPR (BIAcore), antibody captured by anti-human Fc, antigen as analyte. Here is the method: Referring to the instructions provided in the Human Antibody Capture Kit (cat No. BR-1008-39, Lot 10261753) from GE Healthcare, the analytical channel and the control sample channel on a CM5 sensor chip were first saturated and coupled with the maximum amount of anti-human Fc antibody, then buffers containing anti-human CLDN18.2 chimeric antibodies, humanized antibodies or a control antibody IMAB362 at 7.5 μg/ml were allowed to flow through the analytical channel and uniformly distribute. Finally, antigen samples diluted in gradient (the initial concentration was 20 nM and diluted by 1:3 to get 8 concentrations, and the concentration 0.741 nM was set to be repeated) were allowed to flow through both the analytical channel and the sample channel, and the photoreactions upon the binding of antibody to antigen were measured. Subsequently, the association constant Kon and dissociation constant Koff and affinity constant KD of each antibody were finally obtained by instrument software fitting analysis.
On the technique in general: In SPR one partner is held on a chip, and binding of the other changes the refractive index at the surface.

Assay [3] shares this target. Description: BLI (Fortebio), His-tagged antigen on NTA probe, 100 nM antibody, 1:1 fit. As for the experimental part: as §1
For orientation: BLI is a label-free optical method that tracks binding on a fibre tip over time.

Assay [4] has as its target T2, human CLDN18.2 expressed on cell surfaces (human, UniProt P56856-2 1-261).
T2 construct: whole, on cells; also called CHOK1 cells stably expressing human CLDN18.2
Description: FACS of hybridoma supernatants on CHOK1 cells. As for the experimental part:
Balb/c mice were immunized with CHOK1 cells stably expressing human CLDN18.2 protein on cell surfaces. One month later, sera from the mice were analyzed by flow cytometry (FACS), and spleens were taken from mice having high antibody titers in sera. The spleen cells isolated by standard methods were fused with myeloma cells P3X63Ag8.653 using PEG or electrofusion methods. The fused hybridoma cells were seeded in 384 well plates, and after 10-14 days of culture, supernatants obtained were analyzed by FACS for antibody secretion by the hybridoma cells. Several clones were obtained that were able to bind to CHOK1 cells stably expressing human CLDN18.2 protein on cell surfaces and were not able to bind to CHOK1 cells stably expressing human CLDN18.1 protein on cell surfaces. Single cells of the obtained clones were obtained by Limiting Dilution, and each of the monoclonal hybridoma cell clones obtained after being diluted three times secreted only one antibody.

Assay [5] addresses T1, antigen human CLDN18.2, His-tagged. Description: BLI (Fortebio), His-tagged antigen on NTA probe; ratio to 8K13-xiIgG. Here is the method: as §1
The target of assay [6] is T2, human CLDN18.2 expressed on cell …. Description: cell-based or functional assay.
Assay [7] shares this target. Description: cell-based or functional assay. This is another data set of the same source.

B1: 52E22-xiIgG (antibody, V domains shown)
VH: QIQLVQSGPELKKPGETVKISCKASGYTLTNYGMNWVRQAPGKGLKWMGWIRPNTGEPTYAEDFKGRFVFSLETSAATAYLQITNLKSEDTSTYFCARLYRGNTLDNWGQGTSVIVSS
VL: DIVMTQSPSSLTVTTGEKVTMSCKSSQNLLNSGNQRNYLTWYQQKPGQSPKLLIYWASTRESGVPYRFTGSGSGTDFTLTISSVQTDDLAIYYCQNGYSFPFTFGSGTKLEIKR
notes: Murine variable regions on human IgG1 / kappa constant regions; also called 52E22 chimeric antibody
One may read the Kd as a measure of binding affinity in units of concentration. Low readings indicate higher affinity, high ones lower affinity. For orientation: koff means the first-order rate constant of dissociation. A lower koff goes with a long-lived complex. As usually defined, the kon is the rate constant with which the complex forms. Read a low kon as slower complex formation. Regarding B1, the “Koff/Koff(Xi-IgG)” value in assay [1] came to 1. Moreover, in assay [2], the Kd was found to be 1.11 nM, the koff stood at 0.000545 s⁻¹ and the kon turned out to be 490000 M⁻¹ s⁻¹. Besides, in assay [3], binding was put at a Kd of 0.0996 nM, the Response came to 0.223, the koff was 3.55e-05 s⁻¹ and the kon amounted to 357000 M⁻¹ s⁻¹.

B2: 52E22-hz11 (antibody, human IgG1, V domains shown)
VH: QIQLVQSGSELKKPGASVKVSCKASGYTLTNYGMNWVRQAPGQGLEWMGWIRPNTGEPTYAEDFKGRFVFSLDTSVATAYLQITSLKAEDTAVYYCARLYRGNTLDNWGQGTLVTVSS
VL: DIVMTQSPDSLAVSLGERATINCKSSQNLLNSGNQRNYLTWYQQKPGQPPKLLIYWASTRESGVPDRFSGSGSGTDFTLTISSLQAEDLAVYYCQNGYSFPFTFGQGTKLEIKR
notes: Only the position of the reverse mutation is printed; copies: 2 + 2
Turning to B2, the “Koff/Koff(Xi-IgG)” value in assay [1] was 5.55. In assay [3], this molecule returned a Kd of 0.542 nM, a Response of 0.238, a koff of 0.000197 s⁻¹ and a kon of 363000 M⁻¹ s⁻¹.

B3: murine antibody 48G12 (antibody, V domains shown)
VH: EVQLRQSGPELVKPGASVKMSCKASGYTFTTYIINWVKQKPGQGLEWIGYINPYNDDTRYNERVKGKATLTSDKSSSTAYMELSSLTSEDSAVYYCARFYFGNSFTYWGQGTLVTVSA
VL: DIVMTQSPSSLPVTVGERVTMTCKSSQGLFNSGNQRNYLTWYQQKPGQPPKLLIYWASTRESGVPDRFTGSGSGTDFTLTISSVQAEDLAIYYCQNNYIYPLTFGAGTKLELK
notes: Mouse hybridoma antibody (supernatant)
For the molecule B3, the binding result in assay [4] is reported as “binds”.

B4: murine antibody 50C14 (antibody, V domains shown)
VH: EVQLRQSGPELVKPGASVKMSCKASGYTFTTYIINWVKQKPGQGLEWIGYINPYNDGTRYNERVKGKATLTSDKSSSTAYMELSSLTSEDSAVYYCARFHFGNSFTYWGQGTLVTVSA
VL: DIVMTQSPSSLPVTTGEKVTMTCKSSQGLFNNGNQRNYLTWYQQKPGQPPKLLIYWASTRESGVPDRFIGSGSGTDFTLTISSVQAEDLAIYYCQNNYIFPLTFGAGTKLELK
notes: as for B3
In the case of B4, the binding result in assay [4] was “binds”.

B5: 8K13-hz00 (antibody, human IgG1, V domains shown)
VH: QVQLVQSGAEVKKPGSSVKVSCKASGYAFSNYWMNWVRQAPGQGLEWMGQIYPGNGDTKYSGKFNSRVTITADESTSTAYMELSSLRSEDTAVYYCARFYYGNVMDYWGQGTLVTVSS
VL: DIVMTQSPDSLAVSLGERATINCKSSQTLLNGGNQKNYLTWYQQKPGQPPKLLIYWASTRESGVPDRFSGSGSGTDFTLTISSLQAEDVAVYYCQNGYSYPLTFGQGTKLEIK
notes: Humanized (direct CDR graft)
In assay [3], B5 came in with a Kd of 0.744 nM, a Response of 0.133, a koff of 0.000198 s⁻¹ and a kon of 266000 M⁻¹ s⁻¹. Besides, the “Koff/Koff(Xi-IgG)” value in assay [5] was 1.74.

B6: 52E22-hz00 (antibody, human IgG1, V domains shown)
VH: QVQLVQSGSELKKPGASVKVSCKASGYTLTNYGMNWVRQAPGQGLEWMGWIRPNTGEPTYAEDFKGRFVFSLDTSVSTAYLQICSLKAEDTAVYYCARLYRGNTLDNWGQGTLVTVSS
VL: DIVMTQSPDSLAVSLGERATINCKSSQNLLNSGNQRNYLTWYQQKPGQPPKLLIYWASTRESGVPDRFSGSGSGTDFTLTISSLQAEDVAVYYCQNGYSFPFTFGQGTKLEIK
notes: Humanized (direct CDR graft)
Turning to B6, the “Koff/Koff(Xi-IgG)” value in assay [1] was 1.72. In assay [3], this molecule yielded a dissociation constant (Kd) of 0.309 nM, a Response of 0.188, a koff of 6.11e-05 s⁻¹ and a kon of 198000 M⁻¹ s⁻¹.

B7: 8K13-hz11 (antibody, V domains shown)
VH: QVQLVQSGAEVKKPGSSVKVSCKASGYAFSNYWMNWVRQAPGQGLEWMGQIYPGNGDTKYSGKFNSRVTITADKSTNTAYMELSSLRSEDTAVYYCARFYYGNVMDYWGQGTLVTVSS
VL: DIVLTQSPDSLAVSLGERATINCKSSQTLLNGGNQKNYLTWYQQKPGQPPKLLIYWASTRESGVPDRFSGSGSGTDFTLTISSLQAEDLAVYYCQNGYSYPLTFGQGTKLEIK
Turning to B7, in assay [3], the Kd amounted to 0.297 nM, the Response came to 0.139, the koff was 6.73e-05 s⁻¹ and the kon was 227000 M⁻¹ s⁻¹. Also, in assay [5], the “Koff/Koff(Xi-IgG)” value amounted to 0.59.

B8: 52E22-hz12 (antibody, human IgG1, V domains shown)
VH: QIQLVQSGSELKKPGASVKVSCKASGYTLTNYGMNWVRQAPGQGLEWMGWIRPNTGEPTYAEDFKGRFVFSLDTSVATAYLQITSLKAEDTAVYYCARLYRGNTLDNWGQGTLVTVSS
VL: DIVMTQSPDSLAVSLGERATINCKSSQNLLSSGNQRNYLTWYQQKPGQPPKLLIYWASTRESGVPDRFSGSGSGTDFTLTISSLQAEDLAVYYCQQGYSFPFTFGQGTKLEIK
notes: Humanized; also called 52E22-hz12 IgG; 52E22-12 IgG
Consider B8, for which the “Koff/Koff(Xi-IgG)” value in assay [1] is 2.21. In assay [2], this molecule returned a Kd of 1.18 nM, a koff of 0.000172 s⁻¹ and a kon of 146000 M⁻¹ s⁻¹. Also, in assay [3], the Kd turned out to be 0.36 nM, the Response stood at 0.226, the koff is 7.83e-05 s⁻¹ and the kon worked out at 218000 M⁻¹ s⁻¹. The “ADCC reporter EC50 (Jurkat NFAT-luciferase effector cells), CHOK1 target cells” value in assay [6] was found to be 0.567 nM. Also, the “CDC EC50, CHOK1 cells stably expressing human CLDN18.2 (CCK-8)” value in assay [7] came to 2.08 nM.

B9: murine antibody 46J05 (antibody, V domains shown)
VH: DVQLVESGGGLVQPGGSRKLSCAASGFTFSRFGMHWVRQAPKKGLEWVAYISSGSNTIYYADTVKGRFTISRDNPKNTLFLQTTSLRSEDTAIYYCGRLGFYGNSFDHWGQGTLVTVSA
VL: NILMTQSPSSLTVTAGEKVTMNCKSSQSLLNGGNQRNYLTWYQQKAGQPPKLLIYWASTRESGVPDRFTGGGSGTDFTLTISSVQAEDLALYYCQNSYYYPLTFGAGTKLELK
notes: as for B3
Consider B9, for which the binding result in assay [4] is given as “binds”.

B10: 8K13-xiIgG (antibody, V domains shown)
VH: QVHLQQSGAELVRPGSSVKISCKASGYAFSNYWMNWVRQRPGQGLEWIGQIYPGNGDTKYSGKFNSKDTLTADKSSNTAYMQLNSLTSEDSAVYFCARFYYGNVMDYWGQGTSVTVSS
VL: DIVLTQSPSSLTVTAGEKVTMSCKSSQTLLNGGNQKNYLTWYQQKSGQPPKLLIYWASTRESGVPDRFTGSGSGTDFTLTISSVQAEDLAVYYCQNGYSYPLTFGVGTKLELKR
notes: Murine variable regions on human IgG1 / kappa constant regions; also called 8K13 chimeric antibody
Take B10: in assay [2], the Kd stood at 6.99 nM, the koff turned out to be 0.000573 s⁻¹ and the on-rate constant (kon) turned out to be 81900 M⁻¹ s⁻¹. In assay [3], this molecule had a Kd of 0.382 nM, a Response of 0.134, a koff of 0.000114 s⁻¹ and a kon of 298000 M⁻¹ s⁻¹. Further, the “Koff/Koff(Xi-IgG)” value in assay [5] came to 1.
